Test results published in EP4810516A1.

Biological target: γ9δ2 TCR on human γ9δ2 T cells (human) (UniProt Q99603)
Test: FACS, serially diluted antibody on γ9δ2 T cells, anti-human Fc secondary

γ9δ2 TCR on human γ9δ2 T cells (human), sequence (Q99603 21-122, stated change not applied, chain 1 of 2): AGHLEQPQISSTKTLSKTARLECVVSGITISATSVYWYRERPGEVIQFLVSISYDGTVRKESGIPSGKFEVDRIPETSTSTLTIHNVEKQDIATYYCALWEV
γ9δ2 TCR on human γ9δ2 T cells (human), sequence (A0JD36 20-115, stated change not applied, chain 2 of 2, further chain): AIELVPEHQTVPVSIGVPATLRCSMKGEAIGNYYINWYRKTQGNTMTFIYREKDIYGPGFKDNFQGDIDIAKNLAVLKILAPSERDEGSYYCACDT

EC50: 1.74 nM | Max MFI: 15000 MFI
B1: SDP01369 (antibody, human IgG1, kappa, V domains shown)
VH: EVQLVESGGGLVKPGGSLRLSCAASGFTFSSYAMSWVRQAPGKRLEWVASISSGGSTYYPDSVKGRFTISRDNAKNSLYLQMNSLRAEDTAVYYCARDGYPPFDYWGQGTTVTVSS
VL: DIQMTQSPSSVSASVGDRVTITCKASQNVGTNVAWYQQKPGKAPKALIYSASYRYSGVPSRFSGSGSGTDFTLTISSLQPEDFATYYCQQYNSFPLTFGQGTKLEIKR
